Source: PMC6289461, “Mek1 coordinates meiotic progression with DNA break repair by directly phosphorylating and inhibiting the yeast pachytene exit regulator Ndt80”

Target: T1, 6xHis-Ndt80 WT DBD (Saccharomyces cerevisiae, UniProt P38830 1-340)
T1 sequence: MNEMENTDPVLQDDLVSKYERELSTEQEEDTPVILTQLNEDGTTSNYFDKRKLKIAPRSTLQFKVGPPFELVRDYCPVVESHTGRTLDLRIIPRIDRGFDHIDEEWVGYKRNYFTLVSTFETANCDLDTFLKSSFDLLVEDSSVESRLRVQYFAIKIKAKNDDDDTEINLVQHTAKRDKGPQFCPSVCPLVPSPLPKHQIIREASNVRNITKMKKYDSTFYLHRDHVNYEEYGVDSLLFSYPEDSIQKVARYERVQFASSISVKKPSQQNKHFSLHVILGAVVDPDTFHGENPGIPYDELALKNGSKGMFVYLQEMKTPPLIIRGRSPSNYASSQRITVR
Assay: EMSA; 50 nM DBD, 50 nM duplex; highest non-specific binding of the three DBDs; EMSA: 10 mM Tris-HCl pH 7.5, 40 mM NaCl, 4 mM MgCl2, 6% glycerol, 10 mg/ml BSA, 10 ug/ml sonicated salmon sperm DNA; 20 ul, room temperature, 30 min; 6% PAGE in 0.5X TBE
Conditions: protein: recombinant; tags: N-terminal 6xHis (pET-28a); label: 5' Cy5 on strand 1; blunt

B1: Cy5-Scr duplex (dsDNA)
DNA 1: ATTGACGCGGCTTCATCTCACGTATCATT
DNA 2: AATGATACGTGAGATGAAGCCGCGTCAAT
  binding result: binds
